Laboratory results taken from US20220119469.

Key:
[1] = biological target: T1, Spy-C cMyBP-C (cMyBP-C of Spy-C mice with a TEV protease recognition site and a SpyTag sequence in the linker between domains C7 and C8), uncut
T1 chain: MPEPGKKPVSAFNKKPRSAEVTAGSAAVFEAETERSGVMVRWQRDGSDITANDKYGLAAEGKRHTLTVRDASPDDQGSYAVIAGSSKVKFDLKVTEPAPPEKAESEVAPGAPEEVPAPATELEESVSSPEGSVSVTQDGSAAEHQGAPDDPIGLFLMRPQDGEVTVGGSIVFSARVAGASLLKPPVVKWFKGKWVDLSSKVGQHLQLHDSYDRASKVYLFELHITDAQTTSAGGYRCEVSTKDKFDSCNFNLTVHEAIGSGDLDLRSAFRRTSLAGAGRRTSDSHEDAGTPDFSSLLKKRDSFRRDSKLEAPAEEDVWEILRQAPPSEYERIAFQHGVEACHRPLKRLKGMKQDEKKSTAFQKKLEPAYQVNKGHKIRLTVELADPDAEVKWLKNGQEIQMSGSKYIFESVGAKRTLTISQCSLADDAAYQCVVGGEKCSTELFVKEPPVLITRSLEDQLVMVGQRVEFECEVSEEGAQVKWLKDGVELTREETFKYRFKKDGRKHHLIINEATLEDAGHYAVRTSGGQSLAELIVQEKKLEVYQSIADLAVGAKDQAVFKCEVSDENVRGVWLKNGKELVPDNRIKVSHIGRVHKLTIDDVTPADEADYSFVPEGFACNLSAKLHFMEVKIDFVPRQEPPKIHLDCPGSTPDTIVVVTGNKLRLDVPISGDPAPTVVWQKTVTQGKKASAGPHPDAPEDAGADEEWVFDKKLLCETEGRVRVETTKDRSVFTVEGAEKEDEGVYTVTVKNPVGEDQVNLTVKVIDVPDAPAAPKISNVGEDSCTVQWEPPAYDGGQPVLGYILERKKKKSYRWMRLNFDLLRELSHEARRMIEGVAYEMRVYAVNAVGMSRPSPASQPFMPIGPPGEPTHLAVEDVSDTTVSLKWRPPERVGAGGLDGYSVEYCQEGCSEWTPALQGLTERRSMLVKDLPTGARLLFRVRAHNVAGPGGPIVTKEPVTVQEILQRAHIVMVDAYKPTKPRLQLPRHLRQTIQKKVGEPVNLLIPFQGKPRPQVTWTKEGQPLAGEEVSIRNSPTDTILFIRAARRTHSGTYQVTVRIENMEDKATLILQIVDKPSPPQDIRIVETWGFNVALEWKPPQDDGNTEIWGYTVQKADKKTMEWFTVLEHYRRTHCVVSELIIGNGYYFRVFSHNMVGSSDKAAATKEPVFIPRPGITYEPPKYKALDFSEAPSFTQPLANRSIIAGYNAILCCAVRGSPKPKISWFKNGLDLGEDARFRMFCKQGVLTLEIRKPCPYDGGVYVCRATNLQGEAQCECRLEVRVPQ

[2] = biological target: endogenous MyBP-C of homozygous soleus tissue (with TEV site and SpyTag), uncut
[3] = biological target: endogenous MyBP-C in wild type soleus tissue

B1: TEV protease (protein)
chain: GESLFKGPRDYNPISSTICHLTNESDGHTTSLYGIGFGPFIITNKHLFRRNNGTLLVQSLHGVFKVKNTTTLQQHLIDGRDMIIIRMPKDFPPFPQKLKFREPQREERICLVTTNFQTKSMSSMVSDTSCTFPSSDGIFWKHWIQTKDGQCGSPLVSTRDGFIVGIHSASNFTNTNNYFTSVPKNFMELLTNQEAQQWVSGWRLNADSVLWGGHKVFMSKPEEPFQPVKEATQLMN
[1]
  cleavage in permeabilized myocytes: Spy-C cMyBP-C was cleaved at the TEV site
[2]
  decrease in molecular weight on western blot: endogenous MyBP-C domains C1-C7 in homozygous tissue are cleaved with TEV protease (TEVp), shown by a decrease in molecular weight
[3]
  size on western blot: the size of endogenous MyBP-C in wild type tissue is unaffected by TEVp, washing and addition of replacement protein
